One block for each sequence: values may come before it.
Tests used:
[1] = target: HLA-A*02:01; test: IEDB peptide-MHC binding, purified MHC/competitive/fluorescence; filed as Kd, often an IC50 or EC50 that approximates it; ≥ and ≤ were set here for values at or beyond the usual limits of such assays; conditions: source organism: Vibrio cholerae 2740-80
[2] = target: HLA-A*02:03; test: as above; conditions: source organism: Vibrio cholerae 2740-80
[3] = target: HLA-A*02:12; test: as above; conditions: source organism: Vibrio cholerae 2740-80
[4] = target: HLA-A*02:16; test: as above; conditions: source organism: Vibrio cholerae 2740-80
[5] = target: HLA-A*02:19; test: as above; conditions: source organism: Vibrio cholerae 2740-80
[6] = target: HLA-A*03:01; test: as above; conditions: source organism: Vibrio cholerae 2740-80
[7] = target: HLA-A*24:03; test: as above; conditions: source organism: Vibrio cholerae 2740-80
[8] = target: HLA-A*25:01; test: as above; conditions: source organism: Vibrio cholerae 2740-80
[9] = target: HLA-A*26:01; test: as above; conditions: source organism: Vibrio cholerae 2740-80
[10] = target: HLA-B*27:03; test: as above; conditions: source organism: Vibrio cholerae 2740-80
[11] = target: HLA-B*46:01; test: as above; conditions: source organism: Vibrio cholerae 2740-80
[12] = target: HLA-B*51:01; test: as above; conditions: source organism: Vibrio cholerae 2740-80
[13] = target: HLA-B*57:01; test: as above; conditions: source organism: Vibrio cholerae 2740-80
[14] = target: HLA-A*01:01; test: IEDB peptide-MHC binding, purified MHC/competitive/fluorescence; ≥ and ≤ were set here for values at or beyond the usual limits of such assays
[15] = target: HLA-A*02:01; test: as above
[16] = target: HLA-A*03:01; test: as above
[17] = target: HLA-A*11:01; test: as above
[18] = target: HLA-A*24:02; test: as above
[19] = target: HLA-A*25:01; test: as above
[20] = target: HLA-A*29:02; test: as above
[21] = target: HLA-A*31:01; test: as above
[22] = target: HLA-A*68:02; test: as above
[23] = target: HLA-B*07:02; test: as above
[24] = target: HLA-B*08:01; test: as above
[25] = target: HLA-B*14:02; test: as above
[26] = target: HLA-B*18:01; test: as above
[27] = target: HLA-B*35:01; test: as above
[28] = target: HLA-B*37:01; test: as above
[29] = target: HLA-B*40:02; test: as above
[30] = target: HLA-B*44:03; test: as above
[31] = target: HLA-B*51:01; test: as above
[32] = target: HLA-B*53:01; test: as above
[33] = target: HLA-B*58:01; test: as above
[34] = target: HLA-B*40:01; test: IEDB peptide-MHC binding, purified MHC/competitive/radioactivity; ≥ and ≤ were set here for values at or beyond the usual limits of such assays; conditions: source organism: Human papillomavirus 16
[35] = target: HLA-A*24:02; test: as above; conditions: source organism: Homo sapiens
[36] = target: HLA-B*15:17; test: IEDB peptide-MHC binding, purified MHC/direct/fluorescence; filed as Kd, often an IC50 or EC50 that approximates it; ≥ and ≤ were set here for values at or beyond the usual limits of such assays; conditions: source organism: Escherichia coli O157:H7
[37] = target: HLA-B*57:01; test: as above; conditions: source organism: Escherichia coli O157:H7
[38] = target: HLA-B*58:01; test: as above; conditions: source organism: Escherichia coli O157:H7
[39] = target: HLA-C*04:01; test: as above; conditions: source organism: Escherichia coli O139:H28 str. E24377A
[40] = target: HLA-C*05:01; test: as above; conditions: source organism: Giardia lamblia ATCC 50803
[41] = target: HLA-C*06:02; test: as above; conditions: source organism: Giardia lamblia ATCC 50803
[42] = target: HLA-A*68:23; test: IEDB peptide-MHC binding, purified MHC/competitive/fluorescence; filed as Kd, often an IC50 or EC50 that approximates it; ≥ and ≤ were set here for values at or beyond the usual limits of such assays; conditions: source organism: Giardia lamblia ATCC 50803
[43] = target: HLA-B*15:42; test: as above; conditions: source organism: Giardia lamblia ATCC 50803
[44] = target: HLA-B*45:06; test: as above; conditions: source organism: Giardia lamblia ATCC 50803
[45] = target: HLA-B*73:01; test: as above; conditions: source organism: Giardia lamblia ATCC 50803
[46] = target: HLA-B*83:01; test: as above; conditions: source organism: Giardia lamblia ATCC 50803
[47] = target: HLA-C*04:01; test: as above; conditions: source organism: Giardia lamblia ATCC 50803
[48] = target: HLA-C*14:02; test: as above; conditions: source organism: Giardia lamblia ATCC 50803
[49] = source organism: Ateles geoffroyi

Sequence: HSYLWDHQM
Kd [1]: ≥ 20 µM
Kd [2]: ≥ 20 µM
Kd [3]: ≥ 20 µM
Kd [4]: ≥ 20 µM
Kd [5]: ≥ 20 µM
Kd [6]: ≥ 20 µM
Kd [7]: ≥ 20 µM
Kd [8]: ≥ 20 µM
Kd [9]: ≥ 20 µM
Kd [10]: ≥ 20 µM
Kd [11]: ≥ 20 µM
Kd [12]: ≥ 20 µM
Kd [13]: 0.0547 µM

IC50 ([14]; source organism: Homo sapiens): ≥ 20 µM
IC50 ([15]; source organism: Homo sapiens): 0.0939 µM
IC50 ([16]; source organism: Homo sapiens): ≥ 20 µM
IC50 ([17]; source organism: Homo sapiens): ≥ 20 µM
IC50 ([18]; source organism: Homo sapiens): ≥ 20 µM
IC50 ([19]; source organism: Homo sapiens): ≥ 20 µM
IC50 ([20]; source organism: Homo sapiens): 13.2 µM
IC50 ([21]; source organism: Homo sapiens): ≥ 20 µM
IC50 ([22]; source organism: Homo sapiens): ≥ 20 µM
IC50 ([23]; source organism: Homo sapiens): ≥ 20 µM
IC50 ([24]; source organism: Homo sapiens): ≥ 20 µM
IC50 ([25]; source organism: Homo sapiens): ≥ 20 µM
IC50 ([26]; source organism: Homo sapiens): ≥ 20 µM
IC50 ([27]; source organism: Homo sapiens): ≥ 20 µM
IC50 ([28]; source organism: Homo sapiens): ≥ 20 µM
IC50 ([29]; source organism: Homo sapiens): 0.995 µM
IC50 ([30]; source organism: Homo sapiens): ≥ 20 µM
IC50 ([31]; source organism: Homo sapiens): ≥ 20 µM
IC50 ([32]; source organism: Homo sapiens): ≥ 20 µM
IC50 ([33]; source organism: Homo sapiens): ≥ 20 µM
Sequence: ILNRETLLDFV

IC50 [14, 49]: ≥ 20 µM
IC50 [15, 49]: ≥ 20 µM
IC50 [16, 49]: ≥ 20 µM
IC50 [17, 49]: ≥ 20 µM
IC50 [18, 49]: ≥ 20 µM
IC50 [19, 49]: ≥ 20 µM
IC50 [20, 49]: 1.09 µM
IC50 [21, 49]: ≥ 20 µM
IC50 [22, 49]: 0.818 µM
IC50 [23, 49]: 0.134 µM
IC50 [24, 49]: ≥ 20 µM
IC50 [25, 49]: 14.5 µM
IC50 [26, 49]: ≥ 20 µM
IC50 [27, 49]: 0.006 µM
IC50 [28, 49]: ≥ 20 µM
IC50 [29, 49]: 3.3 µM
IC50 [30, 49]: ≥ 20 µM
IC50 [31, 49]: 1.62 µM
IC50 [32, 49]: 1.61 µM
IC50 [33, 49]: ≥ 20 µM
Sequence: LPADPASVL

Sequence: SEYRHYCYSL
IC50 [34]: 0.00054 µM

IC50 [35]: 0.197 µM
Sequence: TYSVSFDSL

Sequence: YMWECPDFF
Kd [36]: 0.157 µM
Kd [37]: 1.44 µM
Kd [38]: ≥ 5 µM
Kd [39]: 0.137 µM

Sequence: YPFHIFYPV
Kd [40]: ≥ 20 µM
Kd [41]: ≥ 20 µM
Kd [42]: 0.0431 µM
Kd [43]: ≥ 5 µM
Kd [44]: 4.7 µM
Kd [45]: 1.33 µM
Kd [46]: 0.137 µM
Kd [47]: ≥ 5 µM
Kd [48]: 0.189 µM

From the Immune Epitope Database (IEDB)
